Experiment: soluble fraction after stress (log2 fold change); higher = more stays soluble; pooled small domains, quantitative proteomics
Conditions: stress: 75 degC
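Further: 20 min heating vs room temperature control held 20 min.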

Row | Sequence | soluble fraction (log2)
1 | HMNKFRVGDEVEIVKLDKTIQHFGGEEVLSPVGTKTYITYVDVTGKEIEIDKDIYSYHADDLTLV | ≥ 1.04
2 | HMNKKLEMKIEQLDLSVRLFNSLKRSGIYTVAQIIKLTEEDVMRFRSLGRKSFKELKEKLSEHGLEFE | -2.14
3 | HMNKLKALREEQGLSMMEIAKQLNMPYTTYVNYEKGTREPNSEMLIKFSKFFNVTIDYLIGNSEQKN | -2.48
4 | HMNKNLQLMINEIKKGLASEDIETRKKSVLMLSRIDAPEIIQVLEPLKDDSSEEIRKISSKIISVLSKKYT | -0.108
5 | HMNKNQGVTTTNLNFRKSASTSSLVLYTIPKNTTLDILDKLPSGWYKVKYKGLTGYVSGSYV | -2.99
6 | HMNKPTFNIFNNRLTFPFKGDITIYSLDGKRVFSAYNESSVNLSFLNRGSYISEFNNSRSVLIL | -1.34
7 | HMNKRKQRINDLMDLIREQPALSIKNLAEMLNVSEMTIRRDMAYLKSNNLLNRAHGMNFLNS | -0.407
8 | HMNKSEFLNELEKRIRVLEKNEIKDILAEYSQHIDMRMGSGLSEAEAIKDFGDMDDLAAEILEAY | -0.277
9 | HMNKVDEEKNAELVSTIQNKFSDVSAATKKKVKAFMAEHDIPNFKNADEIPTANLEAIVAMLNED | 0.255
10 | HMNKYNNIEDLKEEDFENISEKYQVPVSFVKSKLDDLINWHEKNPQKNHYKNYLSALRDWVKRDSLKIKL | -0.132
11 | HMNLDELGNRIREQRIKQRLKQQDIANALMLSAQAVSKWERGENAPDISVLPDLVKILGVSVDWLLTGP | -0.949
12 | HMNLDPHVVGHRLRDLRTRRDLTLADVAAETDISVSTLSRLESGSRRATLELLVPLARTYRVTLDELVDA | -1.15
13 | HMNLDPIKRKSEILSLFESHKNVKFNEIFFEKVNKEFTVLTFLIILELVKDNIIDFSQTQEGLIEFFTR | -0.00641
14 | HMNLDVPGIIKRAKQALNLKRDSELAEFLGVSRATVTNWAARNSIDFRLLLDKLGNTVDYNWLLLGKGNPK | -1.11
15 | HMNLDYKQFQVFNNIETLNTFTNLLSDNKIDFEVENNSKIFDPSFANNDFEKEYIVKIHPNDFEKVY | 0.0557
16 | HMNLEIGAIIKSLRAKHKYTQEQLSAFLGVTPQAVSRWEAGNGYPDIELLPAIARFFEVSTDELLGL | -2.2
17 | HMNLGDLYVIMEIAGQRDDVSARLMNREGQTFLVKTGTKLKSGDVVKEITPTYIKTDHDGEEAFLYF | -0.78
18 | HMNLGETIYNLRKEKKLSQGDLAEQLSVSRQSVSKWENNSAVPDLDKLVKLSTIFGVSLDELVKG | -0.0337
19 | HMNLGLTGDPSVLYSILLQRGDSSRADLQRQTGWSLSKTTLVLNQLLAQKLIVQVGAGRSTQYRVIN | -2.78
20 | HMNLGNLAYESKVTKQVLNMIRPLHPEYSSDDITRAVKEILSEEGSRQRRVDEIARGALDVLMGNPR | 0.0661
21 | HMNLLQAHLLRLESAALLAEVREVDRQLSRWLHPLTPQSDVAIIDERNWEAAVARLTELGVHIEEGRW | -3.05
22 | HMNLNIGNNIKNIRKSKNMTQTDFAELMGLSRSYIGDLENNRSNPSIKTLEAIARALDVPIVALIN | -0.528
23 | HMNLSSETLSEMEARIGQMGVVELQDRRAYLLQEQEGTQNPSRLKEIADELSAIQKALVALV | 0.705
24 | HMNLTEIGQRIRDRREELGLSQDRLAKLGGLPRVTINQLETGSIGDLGVSKLLNLLDLLGLTLDA | -0.559

Row | Sequence | soluble fraction (log2)
25 | HMNLTLMDALKAAGLPVDGINLSMVNKMMEEQMPIDKTSLNQMYQLVQDNKDINVTTLVELKRLG | 0.0398
26 | HMNLTSNDAYSRILNAIITSELRPGDTVTEIQLAQKFGFGRTPVREAIMRLENEGFIVSAERKKRVYIL | -2.97
27 | HMNLTSSDIQKILSYALLADNSITLNSIEESMASLKLKKMSAEQLIELLEVSSMVLRNTNNSWSIL | -2.28
28 | HMNMENIADKIGKIYESLPEDLKLMIKYRDIDDLTYDEIAVKADLPVGTVRSRLHRAREQLLKELEKN | -0.233
29 | HMNMEPNWLKWAKQLAALAQNGLTYSDNPYEIERYEHIRRIAAEMMAEGFELDTKTILELFPREKG | -2.68
30 | HMNMFDMRKTGARISQLRRAAGLTQAELAEKLGISYQAVSSWERGSNMPDIGKLLDLARILNTTVDALLSA | -1.19
31 | HMNMGKRFKELRKERKFTQQQLADRIGLAPSAISSYESGARYPSYDVLIKYSKIFHVTTDYLLG | -2.79
32 | HMNMKVGPVPANVVPANIKAHVSNNYSKYQIVQMMQNDKGYQVKLSNGTDLYYDKDGNILKTS | 0.0129
33 | HMNMSVGAALRRRRNELGMTLRELADEAELTSGFLSQVENDRVSPSLKSLGRIAEVLRIPLFQLLS | -1.72
34 | HMNMSVVEKVIQQISNPGRDSLIPILQAVQEEEGFISRESVIEIGKALDLPASKIYGVATFYNQFR | -0.206
35 | HMNMTDVLVVNQTVRGGTQITESMLSVKKVDKSSLPDNYLKASLKDEVVGKYFDLGLTSGGVLTKDNISVS | -0.154
36 | HMNMVSGHLQIKKGYYYVVLSYYDNRNKRHVKYVSTGLPEKGNKRKAEAALARVRSEFEPPQE | -3.95
37 | HMNNDFIVKSTDSHKVNLRSQPDTHADIIKRLDDHTIVEKLKTVRKNWYLVQLKDTTTQGYVHKSQLERV | -0.357
38 | HMNNDFVERLRKLFGHASMAEIARRIDVPHATIRNYFQGRLPAPEVLIKLARETGVSLNWLLTGEGKMFA | -1.19
39 | HMNNENELSSIISKVLEENPAEKERFLNGEKKLAGFFMGKIMKATKGTADPKKAAQLLNEIL | 0.311
40 | HMNNFNVVVGKAIKNSFNTRENYITINAGKVLGIKTDMGVINDKGIVGIVEKTSKDFATIQSVLNIKS | 0.177
41 | HMNNGTDGLTTRLRRAILAGQYTFKERLPSERQLAEHFNTSRGTVRKVLQRLTTMNLVEQRAGSGTYVRYG | -0.302
42 | HMNNIGSKIKSAKILNNLDDNQLSEITGIDKLQLRSIQDGQVNPTKMELEIISKALKLPTNYFTK | -0.115
43 | HMNNIIYLIANKLDVGKRLDQFITIRTEFSRQRVINLIEDGYVKLNNKIINLKKYKIKGDEKIEITIPEIR | -1.32
44 | HMNNKVAVKSGYYFEIFNKEEIPTTLAKTKQKVKINNIQYDLYQGMSLDDERKIDDMFGDRMGYSIDDY | -1.07
45 | HMNNKVAVKSGYYFELFDKDEIPATLEKMKQKVKIDNIKYDLYQGTSLEDERKIDTMFGEKMGYSIDDYI | -0.0968
46 | HMNNLVTRREVEILGWIKEGKTTSDIAGILSLSPFTVKNHVQNILKKLGARSRSHAVAQAINLGLLH | -1.4
47 | HMNNPISMQKLRQVIRLYGQGKGTKSINSMLGVSRNTIKKYLQVYHSSGINYESFLAMSDKELSAVFLV | -0.509
48 | HMNNQVTFSKFLNEVEDGRVVEVNIQGNNITGVLSDGSKFKTFSPNYPNLVEKLSEKGVSINASPL | 0.0934

Row | Sequence | soluble fraction (log2)
49 | HMNNTIKFSVDENNSGKRLDVYLTENINHLTRSFLKKLIEKEQVKLNKKVLTSPATKVKTKDQITINIIE | 0.0625
50 | HMNNWYESSIKSLVEEYFREHGFSVVFDSSEFWDVFIEKYHKQIPSSQIALFDQVAAEARSYAFNKK | -0.0798
51 | HMNPETLTNGSVVKMSKANLSDELIIDMINNSPARFDLSSGALRSLEGEGVSKAVIESMKRATSG | 0.283
52 | HMNPETLTNSSVIKMSKANLSDELITDMILNSPVKFDLSAGAIKTLESEGVTPAVLESMKNAASK | 0.131
53 | HMNPFTHEEINLMSIYNAAGTREGLIAALTEMWGYLDAEETELRELADSALAKLRGITDAEYAALELE | -1.19
54 | HMNPGAYQVKAGEGLIGLSRRYNVPVDVLASVNNLNTTSSLRVGQTITIPTAAQVNRITQQAQ | 0.216
55 | HMNPGHAERGKEIVEVFLRNNGELSMREIAEKSNITITQARRRVNKLLDQGIVEATAPVQSRNRKYRIK | 0.186
56 | HMNPIEAQIEELKNKDQKTAYQALKHLLAISETRAEVSYYFDRFVALLQDPQSYVRTRGLLLIGA | 0.584
57 | HMNPLLSAYLAEVERGLQGLTAGRRRLVLRELEAHLLDEAEARGLLTEEDMRALLMEKEPPERLAQEIAQ | -0.253
58 | HMNPMLEPAGEIRLSDGVLLRWQSERLPGDDTVRGPGSLYELGLYRVKVRVSAPQQGVRESSVELAGWRQV | -0.0501
59 | HMNPMRYLVVPSQETETWKEYLVSKEWLERKYRIETEGDNRAIPLSNLFPKIVPIELSNLEIIEKEAFS | -0.694
60 | HMNPNEVQIPDLVNKTEDEAEQILKDLKLKLVVKSEEYNENIEKGKIISQDPPYQENYTIKEHSEISIVIS | 0.335
61 | HMNPSRPASKEELLGLFEHLERALDAVTFFRPAEKKPVVVQTLRAMLTKASFTEQDIRTMRGVIAALEN | -1.59
62 | HMNPYQDSILLWKSFDTPLTNEDFMGLSKEELRIARNEIYAAYGRIFTSQDLIDYFNSKPWYQGTTPA | -0.313
63 | HMNQDQDLSRIKGIGPEMVDRLHAQGVETLEQIAAMQMEQLKKLDQQISGNGKAVREQWAEQAKQLLTT | 0.099
64 | HMNQEFRMPNAIKGVELSEENKQQLTQGEKVFLEGMTSAKGSLFDAYVYIDQEKKTLAFDFPEK | 0.0813
65 | HMNQKTQMTKQILAESLKKLMLHHSFEKITIKDITDAAGFIRPTFYNHFKDKYDLVEWIFTEEI | -0.287
66 | HMNQKVRQLLSQAQAEMERKNYKQAIKLLDQALAIEPHSGELHFMKGYAWMSMGEFEKALESLYEARNYA | -1.4
67 | HMNQPRQRKVIFELIDERNALERVLMHFAHLEKQVEKIDERKYQVTLYYDKEDETEILIRVLSFG | -2.01
68 | HMNQTEKSKITHNELLKAAHSLFIEQGFNHTTITDIVTRAGYSTGIFYKHYKTKTDILVELWTNYIE | -2.27
69 | HMNQWQLLSEDGAILGTRVLYHPHETEQPFTRSLSGVKIPAHVQSVTIRAGDLVHGFGGREIQMQLPPIV | -0.0313
70 | HMNREENIQIGRDLLERELRKQGMDLQENLRQEVLLDGAKKLGFNNTDDLLAAIGDLKVTPAMFIGKIA | 0.0484

Reference: the domain aggregation screens of Martell et al. (2025)
